# Test results as given in IntAct's records for PubMed 15665853.
# B1: Spindle assembly abnormal protein 5 (Caenorhabditis elegans), Q20010 (parent)
# chain: MNNYDDLPCSIYFKKPTVQEFVDQPRVFEDSEVPAFQEVLQLPQERTKPPVPSTQPIVAAVEVAKKKSCLSAPKPRKEPPSHPALRQKTVAFGKTVNVSQTVEGTSRNSKKVLASTMSAQNTTTTEEQAAENWRDAMKTELQTIRTEIQEETARRQEELNAQNLVKMQELMSNFFQKITIPKQQAIEPVEKDKENFHESPRQSRQQKPASKIASAREVIKRDGVIPPEALTIIEQRLRSDPMFRQQIDNVLADAECDANRAAYSPPPPMSEVRYGSGVNPALMRETLTVERSIRYDNGLASIDSRQWTNERRDNRAPDSYRTYEPDQPCHSLYQKGQSISYYPSEAAGKTTARNNRTGYYVEDSSDHEEDVVVNKRGQNYHEQAVPETPAERERRIREKYARRK
# partner: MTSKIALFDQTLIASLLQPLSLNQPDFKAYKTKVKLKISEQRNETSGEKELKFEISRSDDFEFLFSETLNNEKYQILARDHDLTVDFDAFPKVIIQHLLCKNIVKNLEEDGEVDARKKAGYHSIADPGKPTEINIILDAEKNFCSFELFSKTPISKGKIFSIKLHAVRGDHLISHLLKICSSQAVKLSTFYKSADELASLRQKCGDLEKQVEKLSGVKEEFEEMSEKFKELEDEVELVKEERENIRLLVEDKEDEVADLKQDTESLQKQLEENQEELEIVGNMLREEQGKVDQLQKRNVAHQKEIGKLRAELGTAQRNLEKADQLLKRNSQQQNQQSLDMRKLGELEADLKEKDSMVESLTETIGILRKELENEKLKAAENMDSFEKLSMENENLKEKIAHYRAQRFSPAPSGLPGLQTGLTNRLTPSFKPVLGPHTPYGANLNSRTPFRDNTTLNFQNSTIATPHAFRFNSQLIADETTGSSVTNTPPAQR
# Variants of: B1
# Conditions: with sas6_caeel sas-6, O62479
row,effect of a mutation on the interaction,Variant
1,decreasing interaction,R397C
